Bridge positions count the residues as written; N and C are the ends. Square brackets hold non-standard residues; d marks the D form. Ends that are not written are not given here. Aib = CC(C)(N)C(=O)O
T1: human GIP receptor (human, UniProt P48546 22-466)
T1 sequence (looked up): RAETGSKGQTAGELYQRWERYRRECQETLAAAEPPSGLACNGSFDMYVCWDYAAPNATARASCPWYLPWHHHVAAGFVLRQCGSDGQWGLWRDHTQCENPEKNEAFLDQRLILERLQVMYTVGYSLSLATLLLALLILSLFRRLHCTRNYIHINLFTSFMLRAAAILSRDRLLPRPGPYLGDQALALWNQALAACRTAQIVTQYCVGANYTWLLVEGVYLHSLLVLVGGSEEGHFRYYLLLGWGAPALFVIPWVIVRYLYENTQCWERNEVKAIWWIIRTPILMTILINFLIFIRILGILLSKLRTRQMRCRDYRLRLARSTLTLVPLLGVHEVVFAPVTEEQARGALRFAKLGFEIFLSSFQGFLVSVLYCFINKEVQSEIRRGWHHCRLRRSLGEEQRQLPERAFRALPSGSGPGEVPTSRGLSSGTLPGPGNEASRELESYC


Experiments:
MC3T3-E1 osteoblasts [1] = assay: ColA1 protein in medium of MC3T3-E1 osteoblasts (collagen assay kit); format: cell-based; details: co-treatment with GIP inhibitor (10 μM or 100 μM), 7 days (FIG. 4)
Experimental: MC3T3-E1 osteoblasts were dispensed into 12-well plates at 100,000 cells/well and incubated for 24 hours using a medium containing 10% fetal bovine serum. […] The long-acting GIP used in the present invention was prepared by the same method as in the long-acting conjugate of the triple agonist illustrated in Example 2, wherein the long-acting GIP is in a form in which immunoglobulin Fc was linked to GIP analog via PEG, and the GIP inhibitor is GIP 3-30, in which the N-terminus was absent in native GIP.
After 7 days, the incubated medium was collected, and ColA1 in the medium was quantified using a collagen assay kit (Biocolor) according to the manufacturer's instructions.
Statistical analysis was performed by one-way ANOVA to compare between the control group and the test groups.

MC3T3-E1 osteoblasts [2] = assay: Cell viability of MC3T3-E1 osteoblasts under fetal bovine serum deficiency; format: cell-based; details: co-treatment with conjugate (2 μM) and GIP inhibitor 0.31, 1.25, 5, 20 μM; dose-dependent manner (FIG. 5)
Experimental: MC3T3-E1 osteoblasts were dispensed into 96-well plates at 10,000 cells/well and incubated for 24 hours using a medium containing 10% fetal bovine serum. The medium in a normal group was replaced with a medium containing 10% bovine fetal serum, and the medium in each of the test groups was replaced with a medium containing no bovine fetal serum. […] The medium in each of the normal group and test groups was replaced, and after 48 hours, the cells were further incubated. Thereafter, the cell viability was analyzed using a collagen assay kit (Biocolor) according to the manufacturers instructions. The GIP inhibitor is GIP 3-30, in which the N-terminus region was absent in native GIP.

human GIP receptor = target: T1, human GIP receptor; assay: cell-based or functional assay
human GLP-1 receptor = human GLP-1 receptor (human, UniProt P43220 24-463); assay: cell-based or functional assay
human GCG receptor = human GCG receptor (human, UniProt P47871 26-477); assay: cell-based or functional assay
human GCG receptor, sequence (P47871 26-477): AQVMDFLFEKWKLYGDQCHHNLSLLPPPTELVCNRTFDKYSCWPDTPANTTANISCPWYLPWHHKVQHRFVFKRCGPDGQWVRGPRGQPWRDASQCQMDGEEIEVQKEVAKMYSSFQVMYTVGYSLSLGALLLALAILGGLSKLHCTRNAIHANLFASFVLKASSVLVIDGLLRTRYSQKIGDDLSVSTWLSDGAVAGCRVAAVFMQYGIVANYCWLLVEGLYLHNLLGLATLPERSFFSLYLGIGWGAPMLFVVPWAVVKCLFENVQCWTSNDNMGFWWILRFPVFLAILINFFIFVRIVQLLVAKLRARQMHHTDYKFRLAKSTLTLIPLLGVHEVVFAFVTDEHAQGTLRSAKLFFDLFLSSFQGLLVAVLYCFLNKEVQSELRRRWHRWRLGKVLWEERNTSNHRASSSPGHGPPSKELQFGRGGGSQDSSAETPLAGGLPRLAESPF

Row | Molecule | effect of the long-acting conjugate of SEQ ID NO: 42 on the expression of ColA1 protein (MC3T3-E1 osteoblasts [1]) | cell viability increased by the long-acting conjugate of SEQ ID NO: 42 (MC3T3-E1 osteoblasts [2]) | In vitro activity (%) compared with native peptide, vs GIP (human GIP receptor) | In vitro activity (%) compared with native peptide, vs GLP-1 (human GLP-1 receptor) | In vitro activity (%) compared with native peptide, vs Glucagon (human GCG receptor)
1 | GIP 3-30 (EGTFISDYSIAMDKIHQQDFVNWLLAQK; Gastric inhibitory polypeptide; UniProt P09681 54-81, looked up, fragment) [GIP inhibitor, GIP 3-30, in which the N-terminus was absent in native GIP, reference compound] | reduced | reduced |  |  | 
2 | H[Aib]QGTFTSDYSKYLDEKACKDFVQWLLDGGPSSGAPPPS (bridge 16-20; not fully specified) [triple agonist of SEQ ID NO: 32] |  |  | 8.8% | 151% | 1.7%
3 | H[Aib]QGTFTSDYSIAMDEIHQKDFVNWLLAQKC (bridge 16-20; not fully specified) [triple agonist of SEQ ID NO: 33] |  |  | 10.4% | 24.5% | < 0.1%
4 | H[Aib]QGTFTSDYSKYLDEKACKEFVQWLLAQ (bridge 16-20) [triple agonist of SEQ ID NO: 31] |  |  | 2.4% | 135% | 2.2%

Reference: patent publication US20230355720A1, “PHARMACEUTICAL COMPOSITION FOR PREVENTING OR TREATING BONE DISEASES, COMPRISING TRIPLE AGONIST OR CONJUGATE THEREOF HAVING ACTIVITY WITH RESPECT TO ALL OF GLUCAGON, GLP-1 AND GLP RECEPTORS” (HANMI PHARM. CO., LTD., priority 2020, published 2023)
